# How the values were obtained:
# [1] = target: human CD3 receptor on T cell surface (Jurkat cells, human CD4 T cells) (human) (UniProt P07766); experiment: flow cytometry on Jurkat cells, one site saturation fit
# [2] = target: Cynomolgus Monkey CD3epsilon protein (Cynomolgus monkey) (UniProt Q95LI5); experiment: ELISA, protein coated on plate
# [3] = target: Human CD3 epsilon (CD3epsilon) protein (His Tag) (human) (UniProt P07766); experiment: ELISA, protein coated on plate
# [4] = target: mouse CD3epsilon protein (mouse) (UniProt P22646); experiment: ELISA, protein coated on plate
# Sequence of mouse CD3epsilon protein (mouse) (P22646 22-108 limits assumed): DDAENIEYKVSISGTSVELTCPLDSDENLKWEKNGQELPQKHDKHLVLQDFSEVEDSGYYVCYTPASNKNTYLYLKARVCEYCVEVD
# Sequence of Cynomolgus Monkey CD3epsilon protein (Cynomolgus monkey) (Q95LI5 22-117 limits assumed): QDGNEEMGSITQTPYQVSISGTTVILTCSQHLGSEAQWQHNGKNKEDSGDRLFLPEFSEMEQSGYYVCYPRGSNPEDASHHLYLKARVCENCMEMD
# Sequence of Human CD3 epsilon (CD3epsilon) protein (His Tag) (human) (P07766 23-126): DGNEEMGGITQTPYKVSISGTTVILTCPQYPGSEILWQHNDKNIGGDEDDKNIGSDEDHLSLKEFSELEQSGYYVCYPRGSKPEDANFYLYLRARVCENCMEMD
# Sequence of human CD3 receptor on T cell surface (Jurkat cells, human CD4 T cells) (human) (P07766 23-207): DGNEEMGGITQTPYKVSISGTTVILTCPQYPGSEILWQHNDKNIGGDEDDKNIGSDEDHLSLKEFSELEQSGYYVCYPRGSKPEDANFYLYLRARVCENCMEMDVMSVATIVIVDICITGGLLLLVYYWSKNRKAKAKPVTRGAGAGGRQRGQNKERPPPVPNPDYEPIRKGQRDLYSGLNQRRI
Best fit- Bmax [1],ELISA A450 [2] [A450],ELISA A450 [3] [A450],ELISA A450 [4] [A450],Substance
9.41e-11,–,–,–,Benchmark antibody OKT3
–,0.046,0.046,0.179,Negative Control

# From patent publication US20230203159A1
